Assay results as given in patent US20060024313A1, “Agents that disrupt dimer formation in DPP-IV family of prolyl dipeptidases” (priority 2004, published 2006).
Values joined by “and” are separate entries in the source; they are usually repeats but may differ in a detail not shown here. Equal values may be shown once. Marks after values point to notes of the source that are not given here. Peptide text beside a SMILES is read from it.

Legend:
DPP-IV [1] = assay: Kinetic constant measurements with chromogenic substrate H-Gly-Pro-pNA; assay type: biochemical, human; conditions: for Km / kcat: substrate H-Gly-Pro-pNA
Experimental: To measure the kinetic parameters, the chromogenic substrate H-Gly-Pro-pNA was utilized to initiate the reaction, which was monitored at OD 405 nm as a function of time (21). […] The initial rate was measured with less than 10% substrate depletion for the first 10 to 300 seconds. The steady-state parameters, kcat and Km, were determined from initial velocity measurements at 0.5 to 5 Km of the substrate concentrations. Lineweaver-Burk plots were analyzed using non-linear regression of the Michaelis-Menten equation. Correlation coefficients better than 0.99 were obtained throughout.

[2] = Size exclusion chromatography (gel filtration, Superdex 200); assay type: physicochemical; conditions: gel filtration experiments; PBS buffer
Experimental: Chemical crosslinking in intact cells was conducted as described (24). Size exclusion chromatography was conducted at 4° C. Purified proteins (0.5 ml at a concentration of 5 uM) were applied to a Superdex 200 10/30 column (10×300-310 mm) pre-equilibrated with PBS. The sample was eluted with the same buffer at 0.3 ml/min and 0.25 ml fractions were collected. The Superdex 200 10/30 column was calibrated with the Stokes Radii of ferritin (6.1 nm), catalase (5.22 nm), aldolase (4.81 nm), albumin (3.55 nm), ovalbumin (3.05 nm) and chymotrypsinogen A (2.09 nm) from Amersham-Pharmacia.

[3] = Analytical ultracentrifugation (AUC): sedimentation velocity and equilibrium; assay type: physicochemical; conditions: for quaternary structure (monomer/dimer) by AUC: PBS buffer where stated; for Stokes' radius (Rs): sedimentation velocity experiments
Experimental: Buffer was changed using an Amicon device and DPP-IV proteins were allowed to equilibrate for at least four hours or longer as indicated in the text at 25° C. after buffer changes. The sedimentation coefficients (S) of the enzyme were estimated by a Beckman-Coulter XL-A analytical ultracentrifuge with an An60Ti rotor as described (25). Sedimentation velocity analysis was performed at 40,000 rpm at 25° C. with standard double sector aluminum centerpieces. The UV absorption of the cells was scanned every 5 min for 4 hours. Sedimentation equilibrium was performed at 20° C. with six-channel open centerpieces and then centrifuged at 12,000 rpm for 12 hours. The data from both sedimentation velocity and sedimentation experiments were analyzed with the SedFit version 8.7 program to obtain molecular weights and sedimentation coefficients (25). Sednterp version 1.07 program is used to obtain solvent density, viscosity, Stokes' radius (Rs) and anhydrous frictional ratio (f/fo).

DPP-IV [4] = assay: Dilution experiment (specific activity after two-fold dilutions); assay type: biochemical, human; conditions: 200 nM to 1.6 nM enzyme, 16 hours at 25° C., 10 uM H-Gly-Pro-pNA
Experimental: Enzyme concentrations ranging from 200 nM to 1.6 nM were used in the dilution experiments. The experiments were carried out with consecutive two-fold dilutions in PBS containing 0.1% BSA and 1 mM DTT (dithiothreitol). The solution after dilution was incubated at 25° C. for 16 hours to ensure attainment of dimer-monomer equilibrium. The reaction was initiated by adding the substrate H-Gly-Pro-pNA at a final concentration of 10 uM for both wild type DPP-IV and H750A proteins. The initial rate of the reaction was recorded and converted to specific activity.

H750A monomers = H750A monomers (Homo sapiens, UniProt P27487, H750A); assay: AUC of H750A in the presence of inhibitor or dipeptide product; conditions: PBS buffer, FIG. 14
H750A monomers, sequence (P27487 39-766 H750A): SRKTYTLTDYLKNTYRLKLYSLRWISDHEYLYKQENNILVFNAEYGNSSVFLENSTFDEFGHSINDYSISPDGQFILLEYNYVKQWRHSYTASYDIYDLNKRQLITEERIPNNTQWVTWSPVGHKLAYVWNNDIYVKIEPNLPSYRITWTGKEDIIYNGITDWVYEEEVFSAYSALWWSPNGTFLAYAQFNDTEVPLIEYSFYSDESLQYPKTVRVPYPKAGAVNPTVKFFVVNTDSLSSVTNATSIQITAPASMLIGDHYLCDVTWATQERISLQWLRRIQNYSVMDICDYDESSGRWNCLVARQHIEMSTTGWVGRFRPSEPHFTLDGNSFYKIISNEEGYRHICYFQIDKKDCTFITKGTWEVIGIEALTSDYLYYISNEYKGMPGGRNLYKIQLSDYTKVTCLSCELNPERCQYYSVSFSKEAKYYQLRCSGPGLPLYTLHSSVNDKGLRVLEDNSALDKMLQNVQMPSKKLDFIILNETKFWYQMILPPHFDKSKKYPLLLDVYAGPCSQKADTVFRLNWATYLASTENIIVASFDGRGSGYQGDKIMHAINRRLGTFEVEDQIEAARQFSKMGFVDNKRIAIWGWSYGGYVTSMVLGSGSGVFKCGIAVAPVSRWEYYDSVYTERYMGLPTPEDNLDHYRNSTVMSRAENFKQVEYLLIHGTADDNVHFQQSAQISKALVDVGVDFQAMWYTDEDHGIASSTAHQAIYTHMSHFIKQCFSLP
Experimental: AUC was performed for H750A in the presence of the proline-mimetic inhibitor and Gly-Pro dipeptide product, since the substrate Gly-Pro-pNA is cleaved by the enzyme.

| Compound | Km (DPP-IV [1]; PBS buffer) [µM] | kcat (DPP-IV [1]; PBS buffer) [s⁻¹] | Stokes' radius (Rs) [2] | Anhydrous frictional ratio (f/fo) ([3]; PBS buffer) | Sedimentation coefficient (s20, w) ([3]; PBS buffer) [S] | quaternary structure (monomer/dimer) by AUC [3] | Stokes' radius (Rs) ([3]; PBS buffer) | specific activity on dilution (DPP-IV [4]) | dimer formation of H750A monomers in the presence of the substance (H750A monomers) | Km (DPP-IV [1]; High salt buffer) [µM] | kcat (DPP-IV [1]; High salt buffer) [s⁻¹] | AUC analysis or catalytic activities in low salt buffer (DPP-IV [1]; low salt buffer compared to PBS buffer (data not shown)) | Sedimentation coefficient (s20, w) ([3]; High salt buffer) | quaternary structure (subunit composition) by sedimentation velocity ([3]; High salt buffer (0.5 M sodium sulfate)) | Stokes' radius (Rs) ([3]; High salt buffer) |
| --- | --- | --- | --- | --- | --- | --- | --- | --- | --- | --- | --- | --- | --- | --- | --- |
| sDPP-IV: endogenous DPP-IV purified from human semen | 96 | 73 | 5.9 nm and 5.9^a nm | 1.4 | 9.1 | homodimeric | 5.8^b nm | no decrease in specific activity | – | – | – | – | – | – | – |
| NCC(=O)N1CCC[C@H]1C(=O)O [G-P-OH, Gly-Pro] (H-Gly-Pro-OH) | – | – | – | – | – | – | – | – | did not associate to form dimers | – | – | – | – | – | – |
| rDPP-IV: recombinant wild-type human DPP-IV (aa 39 to 766) from baculoviral infected insect cells | 90 | 87 | 5.6 nm and 5.6^a nm | 1.4 | 8.4 | non-spherical dimer | 5.0^b nm | no decrease in specific activity | – | 181 | 57 | no differences | 5.0 S and 4.9 S | dimer | 4.9^b nm |
